± gives the uncertainty stated by the source.
B1: Storkhead-box protein 2, residues 64 to 141; numbered along this chain, Q9P2F5 (parent)
chain: SPISQSQFIPLGEILCLAISAMNSARKPVTQEALMEHLTTCFPGVPTPSQEILRHTLNTLVRERKIYPTPDGYFIVTP

Variants of: B1
Experiment: abundance fitness (aPCA) (normalised: wild type 0, dead -1); higher = more abundant; growth selection in yeast, the domain comes from the species named
Conditions: Homo sapiens

Abundance fitness, by site and new letter:
P46: E -0.067 ± 0.039 | C -0.078 ± 0.067 | Y -0.402 ± 0.17 | I 0.015 ± 0.085 | V -0.086 ± 0.04 | W -0.174 ± 0.044 | F -0.408 ± 0.08 | Q -0.187 ± 0.06 | D -0.081 ± 0.075 | M -0.107 ± 0.058 | S -0.15 ± 0.045 | T -0.03 ± 0.056 | L -0.128 ± 0.035 | H -0.14 ± 0.072 | G -0.133 ± 0.032 | R -0.157 ± 0.034 | K -0.243 ± 0.1 | N -0.124 ± 0.12 | A -0.079 ± 0.046
T40: E -0.048 ± 0.09 | S -0.005 ± 0.047 | R 0.016 ± 0.041 | M -0.104 ± 0.13 | V -0.013 ± 0.051 | K -0.042 ± 0.063 | G -0.045 ± 0.042 | A -0.158 ± 0.057 | Y -0.069 ± 0.12 | D -0.069 ± 0.098 | N -0.133 ± 0.17 | Q 0.021 ± 0.076 | F -0.105 ± 0.094 | C 0.002 ± 0.078 | L -0.077 ± 0.024 | I -0.066 ± 0.073 | P -0.551 ± 0.06
P43: G -0.101 ± 0.036 | Q -0.057 ± 0.064 | S -0.023 ± 0.048 | I -0.092 ± 0.11 | V -0.076 ± 0.047 | A -0.137 ± 0.056 | K 0.048 ± 0.057 | Y -0.109 ± 0.093 | D -0.119 ± 0.17 | H -0.001 ± 0.11 | F -0.184 ± 0.093 | C -0.135 ± 0.026 | M -0.21 ± 0.071 | T -0.028 ± 0.067 | L -0.09 ± 0.055 | E -0.006 ± 0.065 | W -0.23 ± 0.055
Q31: V -0.027 ± 0.037 | A -0.045 ± 0.045 | F -0.095 ± 0.073 | G -0.064 ± 0.029 | E 0.01 ± 0.043 | K -0.141 ± 0.067 | Y -0.051 ± 0.075 | L -0.065 ± 0.033 | N 0.004 ± 0.09 | C 0.056 ± 0.062 | T 0.013 ± 0.058 | I -0.074 ± 0.091 | H -0.209 ± 0.07 | M -0.049 ± 0.054 | P 0.018 ± 0.036 | R -0.061 ± 0.03 | S -0.019 ± 0.036
F42: L -0.08 ± 0.1 | W -0.086 ± 0.047 | Q -0.661 ± 0.47 | R 0.001 ± 0.1 | E 0.108 ± 0.13 | A -0.05 ± 0.12 | N 0.106 ± 0.21 | I 0.009 ± 0.15 | M 0.033 ± 0.2 | V -0.045 ± 0.11 | D 0.273 ± 0.28 | P -0.057 ± 0.1 | T 0.176 ± 0.17
E36: V -0.102 ± 0.044 | R 0.003 ± 0.039 | S -0.001 ± 0.048 | G -0.028 ± 0.047 | D -0.012 ± 0.083 | F -0.158 ± 0.1 | H -0.082 ± 0.079 | K -0.008 ± 0.087 | N 0.054 ± 0.11 | C -0.064 ± 0.067 | W -0.187 ± 0.064 | A -0.063 ± 0.052 | L -0.058 ± 0.048 | Y -0.144 ± 0.2 | T -0.006 ± 0.067 | Q 0.029 ± 0.075 | M -0.059 ± 0.12 | P -0.424 ± 0.061
P48: K -0.44 ± 0.15 | S -0.418 ± 0.039 | D -0.398 ± 0.055 | R -0.415 ± 0.035 | C -0.085 ± 0.048 | H -0.354 ± 0.065 | M -0.099 ± 0.13 | Q -0.156 ± 0.071 | F -0.141 ± 0.072 | E -0.447 ± 0.069 | G -0.311 ± 0.034 | W -0.28 ± 0.045 | L -0.259 ± 0.039 | T -0.357 ± 0.054 | I -0.016 ± 0.069 | Y -0.201 ± 0.06 | A -0.186 ± 0.044 | N -0.5 ± 0.099
V45: I 0.026 ± 0.08 | L -0.05 ± 0.031 | C -0.003 ± 0.05 | K -0.222 ± 0.091 | E -0.155 ± 0.067 | F 0.067 ± 0.069 | T -0.031 ± 0.061 | A -0.088 ± 0.043 | Y 0.051 ± 0.12 | S -0.113 ± 0.043 | P -0.168 ± 0.064 | R -0.06 ± 0.03 | Q -0.007 ± 0.076 | W 0.028 ± 0.042 | M -0.109 ± 0.06 | H 0.078 ± 0.12 | N -0.209 ± 0.13 | D -0.207 ± 0.091
L34: C -0.048 ± 0.074 | R -0.83 ± 0.067 | F -0.576 ± 0.12 | V -0.045 ± 0.039 | Q -0.774 ± 0.11 | G -1.09 ± 0.094 | I -0.012 ± 0.12 | K -1 ± 0.21 | W -0.994 ± 0.12 | A -0.45 ± 0.044 | S -0.869 ± 0.071 | P -1.09 ± 0.14 | M -0.208 ± 0.087 | T -0.576 ± 0.084 | H -0.87 ± 0.21 | E -1.08 ± 0.22
C41: V -0.056 ± 0.035 | F 0.01 ± 0.082 | I -0.129 ± 0.15 | T -0.105 ± 0.072 | G 0.019 ± 0.042 | E 0.004 ± 0.067 | W -0.088 ± 0.056 | P -0.534 ± 0.1 | N -0.024 ± 0.14 | Q -0.292 ± 0.16 | K -0.11 ± 0.082 | M 0.032 ± 0.091 | Y -0.062 ± 0.09 | A 0.019 ± 0.051 | R -0.05 ± 0.047 | D -0.055 ± 0.064 | H -0.096 ± 0.15 | S 0.021 ± 0.065
V29: R -0.792 ± 0.048 | Q -0.386 ± 0.099 | S -0.065 ± 0.056 | W -0.363 ± 0.055 | T -0.162 ± 0.11 | P -0.17 ± 0.061 | Y -0.592 ± 0.12
E32: R -0.077 ± 0.041 | V -0.071 ± 0.045 | F -0.159 ± 0.11 | K -0.057 ± 0.081 | S -0.03 ± 0.048 | Q 0.041 ± 0.065 | C -0.174 ± 0.11 | L -0.117 ± 0.046 | Y -0.104 ± 0.11 | G -0.046 ± 0.033 | P -0.042 ± 0.047 | H 0.056 ± 0.11 | D -0.088 ± 0.073 | I -0.072 ± 0.15 | M -0.094 ± 0.081 | W -0.139 ± 0.047 | A -0.008 ± 0.047 | N -0.126 ± 0.11 | T 0.008 ± 0.091
H37: P -0.802 ± 0.12 | R -0.144 ± 0.039 | K -0.164 ± 0.1 | D -0.259 ± 0.074 | V -0.48 ± 0.055 | M -0.357 ± 0.072 | E -0.104 ± 0.061 | G -0.236 ± 0.042 | C -0.222 ± 0.086 | W -0.27 ± 0.049 | Y -0.159 ± 0.083 | S -0.23 ± 0.045 | F -0.285 ± 0.11 | T -0.322 ± 0.11 | L -0.548 ± 0.049 | N -0.092 ± 0.11 | A -0.285 ± 0.053
T30: K -0.089 ± 0.094 | G -0.116 ± 0.035 | M -0.102 ± 0.068 | Y -0.142 ± 0.072 | C -0.026 ± 0.058 | Q 0.01 ± 0.067 | V -0.033 ± 0.042 | S 0.002 ± 0.038 | F -0.074 ± 0.057 | R -0.095 ± 0.035 | P -0.486 ± 0.058 | N -0.352 ± 0.12 | D -0.067 ± 0.07 | I -0.211 ± 0.066 | L -0.218 ± 0.036 | A -0.166 ± 0.037 | W -0.043 ± 0.047
A33: R -0.045 ± 0.037 | I -0.274 ± 0.087 | Y -0.167 ± 0.11 | N 0.1 ± 0.14 | C -0.188 ± 0.075 | E -0.067 ± 0.047 | P -0.339 ± 0.043 | L -0.061 ± 0.032 | T -0.118 ± 0.062 | S -0.001 ± 0.041 | Q 0.009 ± 0.061 | W -0.279 ± 0.05 | K -0.028 ± 0.074 | G -0.038 ± 0.035 | H 0.019 ± 0.079 | V -0.127 ± 0.046 | D -0.154 ± 0.082
T39: G 0.019 ± 0.051 | Y 0.024 ± 0.11 | V 0.098 ± 0.057 | W -0.003 ± 0.064 | M -0.117 ± 0.084 | C -0.038 ± 0.058 | E -0.137 ± 0.14 | K -0.15 ± 0.13 | H -0.044 ± 0.13 | L -0.095 ± 0.04 | F -0.099 ± 0.078 | A -0.025 ± 0.053 | D 0.09 ± 0.11 | R 0.016 ± 0.042 | P -0.076 ± 0.05 | I 0.04 ± 0.11 | S -0.043 ± 0.044
M35: P -0.361 ± 0.075 | E -0.113 ± 0.12 | K -0.299 ± 0.14 | A 0.02 ± 0.071 | R -0.103 ± 0.054 | G -0.049 ± 0.049 | D -0.191 ± 0.22 | V -0.092 ± 0.052 | H 0.018 ± 0.098 | F 0.04 ± 0.071 | T -0.024 ± 0.08 | S 0.005 ± 0.073 | Y -0.164 ± 0.14 | Q -0.063 ± 0.092 | C -0.038 ± 0.091 | L -0.058 ± 0.062 | N -0.249 ± 0.34 | W -0.124 ± 0.067 | I 0.044 ± 0.092
G44: T -0.037 ± 0.054 | L -0.091 ± 0.034 | P -0.063 ± 0.053 | V -0.111 ± 0.035 | Y -0.036 ± 0.12 | R 0.117 ± 0.032 | M -0.024 ± 0.055 | N 0.024 ± 0.17 | A -0.054 ± 0.044 | C -0.046 ± 0.064 | S 0.016 ± 0.042 | D 0.073 ± 0.12 | F -0.156 ± 0.069 | H -0.023 ± 0.077 | W -0.103 ± 0.056 | Q -0.055 ± 0.068
L38: R -0.894 ± 0.091 | H -0.388 ± 0.21 | C -0.316 ± 0.12 | F 0.014 ± 0.093 | T -0.258 ± 0.059 | V -0.075 ± 0.047 | Y -0.391 ± 0.13 | G -0.787 ± 0.065 | D -0.915 ± 0.26 | S -0.613 ± 0.066 | W -0.048 ± 0.061 | K -0.608 ± 0.4 | Q -0.865 ± 0.16 | A -0.386 ± 0.07 | I -0.091 ± 0.13 | P -0.998 ± 0.3
T47: G -0.197 ± 0.026 | K 0.021 ± 0.056 | L -0.073 ± 0.032 | H -0.166 ± 0.12 | S -0.092 ± 0.041 | F -0.273 ± 0.055 | N -0.151 ± 0.1 | Q -0.067 ± 0.054 | W -0.397 ± 0.04 | V 0.071 ± 0.031 | Y -0.132 ± 0.085 | D -0.277 ± 0.067 | I 0.11 ± 0.064 | P -0.191 ± 0.049 | A -0.082 ± 0.034 | E -0.199 ± 0.05 | R -0.018 ± 0.032 | C -0.115 ± 0.053

Source: the Human Domainome abundance scans (Beltran et al. 2025)
